The text below walks through data of article PMC8701324, “Structural Insight into the Mechanism of PALB2 Interaction with MRG15” (Genes, 2021).

Changes are numbered by the printed parent chain. Where no end group is shown, it is not given here.

Settings in all cases: both partners purified
In assay [1] the target is T1, MRG15 MRG domain, amino acids 155-323 (UniProt Q9UBU8-2 155-323).
T1 construct: MRG15 (Morf-related gene on chromosome 15), MRG domain, amino acids 155-323; Cloned into the pET28b+-based pSMT3 vector; also called MRG15^155-323; MRG15 fragment; source: E. coli BL21*, purified (Ni-NTA, SUMO tag cleaved with Ulp1, second Ni-NTA flowthrough); not shown: 6xHis, N-terminal, cleaved; SUMO, N-terminal, cleaved
T1 sequence (Q9UBU8 194-362): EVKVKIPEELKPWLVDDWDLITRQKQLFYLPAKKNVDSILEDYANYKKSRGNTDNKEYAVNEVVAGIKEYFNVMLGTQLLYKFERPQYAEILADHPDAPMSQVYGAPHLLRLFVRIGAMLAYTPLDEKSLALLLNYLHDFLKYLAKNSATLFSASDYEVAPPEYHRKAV
The assay is described as follows: pull-down; His-tagged PALB2 peptide (0.1 mg/mL) bound to Ni-NTA beads, MRG15 155-323 (0.1 mg/mL) added for 30 min; Buffer B (25 mM HEPES pH 7.5, 10% glycerol, 2 mM CHAPS, 300 mM NaCl), washes with 20 mM imidazole, elution with 250 mM imidazole, SDS-PAGE.

In assay [2] the target is T1, MRG15 MRG domain, amino acids 155-323. The assay can be described thus: fluorescence polarisation; fluorescence anisotropy competition; mutant PALB2 597-630 peptides serially diluted from 10 uM to 0.6 nM against a preformed complex of MRG15 and FAM-PALB2; 25 mM HEPES pH 8.0, 1 mM TCEP, 10% DMSO, 200 mM NaCl; room temperature. Background: Polarisation of emitted light reports the rotation of a fluorescent probe.

For assay [3] the target is unchanged. The assay can be described thus: fluorescence polarisation; fluorescence anisotropy; MRG15 fragment serially diluted from 10 uM to 0.6 nM against 10 nM FAM-PALB2 597-630; 25 mM HEPES pH 8.0, 1 mM TCEP, 10% DMSO, 200 mM NaCl; four-parameter logistic fit, EC50 taken as Kd.

B1: 6xHis-PALB2^597-630 (peptide, UniProt Q86YC2 597-630, looked up)
chain: MLSLKQLLSFLSITDFQLPDEDFGPLKLEKVKSC
notes: Cloned into pMCSG7; also called His-tagged PALB2 peptide; source: E. coli BL21*, purified (Ni-NTA from 8 M urea, washed down to 1 M urea); not shown: 6xHis, N-terminal, kept
Regarding B1, the binding result in assay [1] was “binds”.

B2: PALB2^597-630 peptide Pro615Ser (peptide, UniProt Q86YC2 597-630, looked up)
peptide: B1 chain with P19S
notes: also called Pro615 to serine; source: synthetic peptide, bought: Genscript Biotech
As for B2, in assay [2], the “fold reduction in binding affinity against the wild-type peptide” value is 5 fold.

B3: fluorescein-labeled PALB2^597-630 peptide (peptide, UniProt Q86YC2 597-630, looked up)
peptide: B1 chain
modifications: also: fluorescein (FAM) label, position not given here
notes: also called FAM-PALB2; source: synthetic peptide, bought: Genscript Biotech
With B3, in assay [3], binding was characterised by a dissociation constant (Kd) of 23.4 ± 5 nM.

B4: PALB2^597-630 peptide Pro621Thr (peptide, UniProt Q86YC2 597-630, looked up)
peptide: B1 chain with P25T
notes: also called Pro621 by threonine; source: synthetic peptide, bought: Genscript Biotech
On to B4, for which the binding result in assay [2] is reported as “binds”.

B5: PALB2^597-630 peptide Asp616His (peptide, UniProt Q86YC2 597-630, looked up)
peptide: B1 chain with D20H
notes: also called Asp616 with histidine; source: synthetic peptide, bought: Genscript Biotech
As for B5, in assay [2], the “fold reduction in binding affinity against the wild-type peptide” value is 2 fold.
